Source: patent EP4692122A1, “HUMANIZED ANTIBODIES TARGETING EPHA10” (priority 2023, dated 2024)

T1: human EphA10 on MDA-MB-231 human EphA10 overexpressing cell line (human, UniProt Q5JZY3 34-1008)
T1 construct: whole, on cells; also called hEphA10; cell-expressing-EphA10
T1 sequence (looked up): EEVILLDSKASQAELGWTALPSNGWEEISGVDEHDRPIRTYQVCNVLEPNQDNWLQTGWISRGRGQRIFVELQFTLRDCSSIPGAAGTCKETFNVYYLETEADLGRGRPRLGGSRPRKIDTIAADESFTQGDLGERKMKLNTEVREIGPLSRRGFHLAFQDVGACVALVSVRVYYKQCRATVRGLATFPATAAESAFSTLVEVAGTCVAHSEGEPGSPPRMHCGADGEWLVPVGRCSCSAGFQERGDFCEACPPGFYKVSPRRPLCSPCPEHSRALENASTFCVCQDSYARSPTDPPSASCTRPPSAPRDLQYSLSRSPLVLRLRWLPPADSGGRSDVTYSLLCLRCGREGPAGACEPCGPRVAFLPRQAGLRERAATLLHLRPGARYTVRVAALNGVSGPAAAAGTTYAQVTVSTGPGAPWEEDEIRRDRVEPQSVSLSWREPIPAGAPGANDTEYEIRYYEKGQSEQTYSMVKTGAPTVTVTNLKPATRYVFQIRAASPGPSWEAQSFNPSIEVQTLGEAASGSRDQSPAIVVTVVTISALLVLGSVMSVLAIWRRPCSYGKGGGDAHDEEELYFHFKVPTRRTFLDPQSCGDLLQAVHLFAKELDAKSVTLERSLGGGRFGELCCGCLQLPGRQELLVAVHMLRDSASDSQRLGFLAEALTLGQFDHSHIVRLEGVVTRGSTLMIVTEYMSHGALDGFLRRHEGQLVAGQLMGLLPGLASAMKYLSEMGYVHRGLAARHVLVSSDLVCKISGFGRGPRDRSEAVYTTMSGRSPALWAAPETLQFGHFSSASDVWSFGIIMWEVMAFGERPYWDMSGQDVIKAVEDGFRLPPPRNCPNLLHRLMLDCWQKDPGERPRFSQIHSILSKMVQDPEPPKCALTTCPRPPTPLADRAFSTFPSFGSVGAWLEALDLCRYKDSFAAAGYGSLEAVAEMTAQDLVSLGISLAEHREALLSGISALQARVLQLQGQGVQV

T2: mouse EphA10 on mouse EphA10 overexpressing cell line (mouse, UniProt Q8BYG9 23-1007)
T2 construct: whole, on cells; Parent cell line of the mouse EphA10 overexpressing line not clearly stated
T2 sequence (looked up): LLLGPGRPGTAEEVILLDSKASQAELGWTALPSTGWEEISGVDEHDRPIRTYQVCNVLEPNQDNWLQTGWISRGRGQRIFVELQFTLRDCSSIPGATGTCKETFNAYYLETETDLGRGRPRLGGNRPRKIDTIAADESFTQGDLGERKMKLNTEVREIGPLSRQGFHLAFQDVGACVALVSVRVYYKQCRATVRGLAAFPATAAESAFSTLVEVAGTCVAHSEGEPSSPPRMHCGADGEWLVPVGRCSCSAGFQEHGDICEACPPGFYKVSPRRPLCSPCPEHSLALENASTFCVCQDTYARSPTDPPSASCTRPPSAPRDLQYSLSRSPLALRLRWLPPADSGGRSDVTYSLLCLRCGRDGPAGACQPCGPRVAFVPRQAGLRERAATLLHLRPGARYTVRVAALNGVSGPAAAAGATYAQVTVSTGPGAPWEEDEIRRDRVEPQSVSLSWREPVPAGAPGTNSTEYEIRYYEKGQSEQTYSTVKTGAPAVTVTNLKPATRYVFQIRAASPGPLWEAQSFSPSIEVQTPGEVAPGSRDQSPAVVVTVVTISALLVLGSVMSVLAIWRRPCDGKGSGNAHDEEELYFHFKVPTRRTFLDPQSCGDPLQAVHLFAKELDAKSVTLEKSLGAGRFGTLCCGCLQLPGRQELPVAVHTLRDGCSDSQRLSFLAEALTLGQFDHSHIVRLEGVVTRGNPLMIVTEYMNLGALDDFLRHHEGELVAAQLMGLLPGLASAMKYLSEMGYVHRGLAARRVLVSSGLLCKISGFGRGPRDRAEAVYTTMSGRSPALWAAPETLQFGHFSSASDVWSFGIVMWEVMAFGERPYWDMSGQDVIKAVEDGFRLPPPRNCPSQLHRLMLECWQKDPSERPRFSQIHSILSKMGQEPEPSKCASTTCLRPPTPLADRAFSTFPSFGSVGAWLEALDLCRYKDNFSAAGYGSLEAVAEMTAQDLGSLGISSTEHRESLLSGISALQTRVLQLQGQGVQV

T3: mEphA10-Fc (mouse EphA10 fused with human Fc) (mouse; human, UniProt Q8BYG9 23-565)
T3 construct: extracellular domain; not shown: human Fc
T3 sequence (looked up): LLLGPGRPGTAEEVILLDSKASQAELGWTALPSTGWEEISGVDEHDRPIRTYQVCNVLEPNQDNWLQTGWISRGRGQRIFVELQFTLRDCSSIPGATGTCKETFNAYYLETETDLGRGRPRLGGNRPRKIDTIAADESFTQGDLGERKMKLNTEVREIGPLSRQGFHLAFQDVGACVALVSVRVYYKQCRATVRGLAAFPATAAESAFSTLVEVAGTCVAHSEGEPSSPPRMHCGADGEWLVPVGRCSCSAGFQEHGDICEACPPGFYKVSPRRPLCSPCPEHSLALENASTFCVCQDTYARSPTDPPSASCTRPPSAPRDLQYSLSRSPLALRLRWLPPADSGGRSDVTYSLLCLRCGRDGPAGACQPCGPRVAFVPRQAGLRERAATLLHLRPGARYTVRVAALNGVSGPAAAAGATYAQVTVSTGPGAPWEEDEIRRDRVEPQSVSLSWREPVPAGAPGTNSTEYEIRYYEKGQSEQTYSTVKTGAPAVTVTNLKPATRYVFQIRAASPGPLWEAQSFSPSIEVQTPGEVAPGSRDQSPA


Experiments:
[1] = biological target: T1, human EphA10 on MDA-MB-231 human EphA10 …; assay: flow cytometry on MDA-MB-231 human EphA10 overexpressing cells, 500 ng antibody
[2] = biological target: T2, mouse EphA10 on mouse EphA10 …; assay: flow cytometry on mouse EphA10 overexpressing cells, 500 ng antibody
[3] = biological target: T3, mEphA10-Fc (mouse EphA10 fused with …); assay: ELISA, mEphA10-Fc coated, anti-human kappa HRP

Row | Binder | binding result [1] | binding result [2] | binding result [3]
1 | EphA10-specific humanized antibody 1-1 (antibody, V domains shown, Expressed in Expi293F cells in IgG form; detected with anti-human kappa chain; also called IMGT 1-1) VH: QVTLKESGPTLVKPTQTLTLTCTFSGFSLSTSGMGVGWIRQPPGKALEWLAHIWWDDVKRYNPALKSRLTITKDTSKNQVVLTMTNMDPVDTATYYCARTSFPAGVDYWGQGTLVTVSS VL: DVVMTQSPLSLPVTLGQPASISCRSSQSLQNSNGNTCLNWFQQRPGQSPRRLIYRVSNRFSGVPDRFSGSGSGTDFTLKISRVEAEDVGVYYCLQVTHVPFTFGQGTKLEIKR | binds | binds | –
2 | antibody A.7 (antibody, V domains shown, also called A7 antibody) VH: QVTLKESGPTLVKPTQTLTLTCTFSGFSLSTSGMGVGWIRQPPGKALEWLAHIWWDDVKRYNPALKSRLTITKDTSKNQVVLTMTNMDPVDTATYYCARTSFPAGVDYWGQGTLVTVSS VL: DVVMTQSPLSLPVTLGQPASISCRSSQSLQNSNGNTYLNWFQQRPGQSPRRLIYRVSNRFSGVPDRFSGSGSGTDFTLKISRVEAEDVGVYYCLQGTHVPFTFGQGTKLEIKR | – | – | binds
3 | EphA10-specific humanized antibody 1-2 (antibody, V domains shown, Expressed in Expi293F cells in IgG form; detected with anti-human kappa chain; also called IMGT 1-2) VH: QVTLKESGPTLVKPTQTLTLTCTFSGFSLSTSGMGVGWIRQPPGKALEWLAHIWWDDVKRYNPALKSRLTITKDTSKNQVVLTMTNMDPVDTATYYCARTSFPAGVDYWGQGTLVTVSS VL: DIVMTQTPLSLSVTPGQPASISCRSSQSLQNSNGNTCLNWYLQKPGQSPQLLIYRVSNRFSGVPDRFSGSGSGTDFTLKISRVEAEDVGVYYCLQVTHVPFTFGQGTKLEIKR | binds | binds | –
4 | antibody 2-W (antibody, V domains shown, 1-2 with the free light chain CDR cysteine replaced by tryptophan; IgG form; also called 2W antibody; W2) VH: QVTLKESGPTLVKPTQTLTLTCTFSGFSLSTSGMGVGWIRQPPGKALEWLAHIWWDDVKRYNPALKSRLTITKDTSKNQVVLTMTNMDPVDTATYYCARTSFPAGVDYWGQGTLVTVSS VL: DIVMTQTPLSLSVTPGQPASISCRSSQSLQNSNGNTWLNWYLQKPGQSPQLLIYRVSNRFSGVPDRFSGSGSGTDFTLKISRVEAEDVGVYYCLQVTHVPFTFGQGTKLEIKR | – | – | binds
